From patent US6436691B1, “Chemical compounds” (Zeneca Limited, priority 1995, dated 2002)
Residue numbers refer to the chain shown, from its start. Numbers in names are those of the source.

Tests used:
Assay type in all cases: biochemical
[1] = Conversion of Hipp-Asp to hippuric acid by mutant and native human CPB, HPLC assay (Example 6); settings: 5 hr at 37° C.; 4 μg enzyme; 0.5 mM substrate
Protocol: (§1) Purified mutants of human CPB (D253K and D253R; Examples 1-3) and native human CPB, produced as described in Reference Example 12, were assayed for their ability to convert either hippuryl-L-aspartic acid (Hipp-Asp—Reference Example 2), hippuryl-L-glutamic acid (Hipp-Glu—Reference Example 1) or hippuryl-L-arginine (Sigma Chemical Company—cat no. H6625) to hippuric acid using a HPLC based assay.
(§2) The reaction mixture (250 μl) contained 4 μg human CPB (native or mutant) and 0.5 mM Hipp-Asp or Hipp-Glu in 0.025 M Tris-HCL, pH 7.5. Samples were incubated for 5 hr at 37° C. The reactions were terminated by the addition of 250 μl of 80% methanol, 20% distilled water, 0.2% trifluoro acetic acid and the amount of hippuric acid generated was quantified by HPLC.
(§3) HPLC analysis was carried out using a Hewlett Packard 1090 Series 11 (with diode array) HPLC system. Samples (50 μl) were injected onto a Hichrom Hi-RPB column (25 cm) and separated using a mobile phase of 40% methanol, 60% distilled water, 0.1% trifluoro acetic acid at a flow rate of 1 ml/min. The amount of product (hippuric acid) produced was determined from calibration curves generated with known amounts of hippuric acid (Sigma-H6375). The results are shown in Table 1 and are expressed as the percentage conversion of substrate into product in 5 hr at 37° C. with 4 μg enzyme.

[2] = Conversion of Hipp-Glu to hippuric acid by mutant and native human CPB, HPLC assay (Example 6); settings: 5 hr at 37° C.; 4 μg enzyme; 0.5 mM substrate
Protocol: as §1, §2, §3

[3] = Conversion of Hipp-Arg to hippuric acid by mutant and native human CPB, HPLC assay (Example 6); settings: 5 hr at 37° C.; 4 μg enzyme
Protocol: as §1, §2, §3

[4] = Conversion of prodrug of Example 24 to drug of Example 25 by HCPB mutants, HPLC (Example 20); settings: enzyme 15 μg/ml; 0.5 mM prodrug of Example 24; 5 minutes at 37° C.
Protocol: The reaction was stopped by adding MeCN (500 μl) plus 0.2% Trifluoroacetic acid. The amount of drug produced was then quantified by HPLC.
HPLC separation was carried out as described in Example 6 except that a mobile phase of 70% MeCN, 30% distilled water and 0.1% trifluoroacetic acid was used to achieve separation of prodrug (retention time 3.8 minutes) and drug (retention time 4.9 minutes) and the compounds were detected at 260 nm. The amount of drug produced was quantified from calibration curves generated with known amounts of drug.
The amount of [Q54R,D145A,D253K]HCPB and [G251T,D253K]HCPB mutants was reduced to 0.75 μg in the reaction mixture.

[5] = Activity against Hipp-Asp in crude E. coli periplasmic shockate relative to D253K or D253R HCPB (Example 16)
From the text: (§4) A number of other mutant HCPBs have been constructed in a similar manner to the methods described in Reference Examples 7 and 8, and Examples 12, 13, 14 and 15. In each case oligos were constructed to introduce specific changes in the gene sequence by methods similar to those described above. In some cases additional mutations were identified upon complete sequencing of the mutated gene, and these were presumably introduced during the PCR reactions. Mutants with enzyme activity against substrate analogues (see Example 18 below) have been identified, and examples of these are given in Table 4 below. […] This material is subsequently referred to as periplasmic shockate or shockate and is prepared by the following procedure.
(§5) 1. A single colony was used to inoculate 75 ml of L-broth nutrient media containing 10 μg/ml tetracycline and arabinose to a final concentration of 0.01% (w/v). Incubation was performed at 20° C. with shaking (250 rpm) for about 60 hours.
(§6) 2. The cells were then harvested by centrifugation at 4° C.
(§7) 3. The cell pellet was re-suspended in 300 micro-liters of 20% sucrose (w/v) containing 1 mM EDTA in 200 mM Tris-HCl at pH7.5, and incubated at room-temperature for 15 minutes.
(§8) 4. Periplasmic shockate was generated by the addition of 450 micro-liters of distilled water, and a further incubation at room-temperature for 15 minutes.
(§9) 5. Cellular remains were removed by centrifugation, and the supernatant assayed for enzyme activity as soon as possible after preparation and kept at 4° C. prior to assay.
(§10) The activity of [G251T,D253K]HCPB was measured using the assay conditions described in Example 17 but using either 50 μl of a neat or 1 in 10 or 1 in 100 dilution of [G251T,D253K]HCPB crude E.coli periplasmic shockate (shockate) sample in place of purified enzyme. Samples were incubated for 24 h at 37° C. […] For other HCPB mutants, the reaction volume was 250 μl and contained 125 μl of neat shockate or 1 in 50 dilution of shockate. The shockate samples were prepared as described in Example 16. The amount of Hippuric acid produced in 24 h was quantified by HPLC as described in Example 17 and the results are shown in Table 6 and are expressed as the percentage conversion of substrate into product in 24 h at 37° C.

[6] = Activity against Hipp-Glu in crude E. coli periplasmic shockate relative to D253K or D253R HCPB (Example 16)
From the text: as §4, §5, §6, §7, §8, §9
The activity of [G251T,D253K]HCPB was measured using the assay conditions described in Example 17 but using either 50 μl of a neat or 1 in 10 or 1 in 100 dilution of [G251T,D253K]HCPB crude E.coli periplasmic shockate (shockate) sample in place of purified enzyme. Samples were incubated for 24 h at 37° C. […] The amount of Hippuric acid produced in 24 h was quantified by HPLC as described in Example 17 and the results are shown in Table 6 and are expressed as the percentage conversion of substrate into product in 24 h at 37° C.

[7] = Conversion of Hipp-Glu by purified HCPB mutants, 30 minutes, HPLC (Example 17); settings: 0.5 mM substrate, 30 minutes at 37° C.
Protocol: (§11) Purified mutants of human CPB (D253K; [G251K,D253R]; [G251N,D253R]; [I201S,D253K]; [G251N,D253K]; [Q54R,D145A,D253K]; [G251T,D253K]; [G251S,D253K]; [A248N,G251N,D253K]; [A248S,G251N,D253K] and [S205N,G251N,D253K]—described in Examples 3, 12, 13, 16, 28, 30, 31, 32 and 33) were assayed for their ability to convert hippuryl-L-glutamic acid (Hipp-Glu—Reference Example 1), hippuryl-L-aspartic acid (Hipp-Asp—Reference Example 2) and hippuryl-L-arginine (Sigma Chemical Company—cat no. H6625) to hippuric acid using a HPLC based assay similar to that described in Example 6.
(§12) Samples were incubated for 30 minutes at 37° C. The reactions were terminated by the addition of 500 μl of 40% methanol, 60% distilled water, 0.2% trifluoro acetic acid and the amount of hippuric acid generated was quantitated by HPLC as described in Example 6 but using a mobile phase of 20% methanol, 80% 50 mM phosphate buffer, pH 6.5. Hippuric acid was detected at 230 nm. The results are shown in Table 5 and are expressed as the percentage conversion of substrate into product in 30 minutes at 37° C.

[8] = Conversion of Hipp-Asp by purified HCPB mutants, 30 minutes, HPLC (Example 17); settings: 0.5 mM substrate, 30 minutes at 37° C.
Protocol: as §11, §12

[9] = Conversion of Hipp-Arg by purified HCPB mutants, 30 minutes, HPLC (Example 17); settings: 0.5 mM substrate, 30 minutes at 37° C.
Protocol: as §11, §12

[10] = Conversion of Hipp-Glu by periplasmic shockate of HCPB mutants, 24 h (Example 18); settings: 24 h at 37° C.
Protocol: as §10

[11] = Conversion of Hipp-Asp by periplasmic shockate of HCPB mutants, 24 h (Example 18); settings: shockate concentration in reaction mixture 50 %; 24 h at 37° C.
Protocol: as §10

B1: D253R HCPB: mature HCPB with aspartate 253 changed to arginine, C-terminal (His)6-c-myc tag (protein, UniProt P15086 111-417, looked up, variant D253R)
Carboxypeptidase B: ATGHSYEKYNKWETIEAWTQQVATENPALISRSVIGTTFEGRAIYLLKVGKAGQNKPAIFMDCGFHAREWISPAFCQWFVREAVRTYGREIQVTELLDKLDFYVLPVLNIDGYIYTWTKSRFWRKTRSTHTGSSCIGTDPNRNFDAGWCEIGASRNPCDETYCGPAAESEKETKALADFIRNKLSSIKAYLTIHSYSQMMIYPYSYAYKLGENNAELNALAKATVKELASLHGTKYTYGPGATTIYPAAGGSRDWAYDQGIRYSFTFELRDTGRYGFLLPESQIRATCEETFLAIKYVASYVLEHLY
modifications: (His)6-c-myc tag
Hipp-Asp (% conversion to Hippuric acid) [1]: 72% | Hipp-Glu (% conversion to Hippuric acid) [2]: 52% | Hipp-Arg (% conversion to Hippuric acid) [3]: 3% | Prodrug Hydrolysis (%) [4]: 18.3%

B2: [G251Q, D253K]: HCPB mutant with G251Q and D253K (protein, UniProt P15086 111-417, looked up, variant G251Q D253K)
Carboxypeptidase B: B1 Carboxypeptidase B with G251Q, R253K
Hipp-Asp, activity relative to D253K HCPB or D253R HCPB [5]: NAD (No activity detected)

B3: [I245H, D253K]: HCPB mutant with I245H and D253K (protein, UniProt P15086 111-417, looked up, variant I245H D253K)
Carboxypeptidase B: B1 Carboxypeptidase B with I245H, R253K
Hipp-Asp, activity relative to D253K HCPB or D253R HCPB [5]: NAD (No activity detected)

B4: [A248S, G251S, D253K]: HCPB mutant with A248S, G251S and D253K (protein, UniProt P15086 111-417, looked up, variant A248S G251S D253K)
Carboxypeptidase B: B1 Carboxypeptidase B with A248S, G251S, R253K
Hipp-Asp, activity relative to D253K HCPB or D253R HCPB [5]: NAD (No activity detected)

B5: [G251S, D253K]: HCPB mutant with G251S and D253K, (His)6-c-myc tag (protein, UniProt P15086 111-417, looked up, variant G251S D253K)
Carboxypeptidase B: B1 Carboxypeptidase B with G251S, R253K
modifications: (His)6-c-myc tag
Hipp-Glu, activity relative to D253K HCPB or D253R HCPB [6]: e (>10 times the activity of D253K HCPB) | Hipp-Glu (% conversion) ([7]; enzyme 0.25 μg/ml): 14.5% | Hipp-Glu (% conversion) ([7]; enzyme 25 μg/ml): 100% | Hipp-Asp (% conversion) ([8]; enzyme 0.25 μg/ml): 0% | Hipp-Asp (% conversion) ([8]; enzyme 25 μg/ml): 2.8% | Hipp-Arg (% conversion) ([9]; enzyme 0.25 μg/ml): 0% | Hipp-Arg (% conversion) ([9]; enzyme 25 μg/ml): 0.8% | Hipp-Glu (% conversion) ([10]; shockate concentration in reaction mixture 1 %): 5% | Hipp-Glu (% conversion) ([10]; shockate concentration in reaction mixture 50 %): 93.8% | Hipp-Asp (% conversion) [11]: 1.6%
